The results in this text go back to paper PMC9941103.

Where “and” joins values, the source holds several entries; their conditions need not be identical. Equal values may be shown once.

The target in assay [1] is SNARE:Complexin-1 complex (UniProt P60881). The assay can be described thus: native MS; equimolar Complexin-1 added to the pre-assembled SNARE complexes.
In assay [2] the target is fully assembled ternary SNARE complex (SNAP25:Syntaxin-1A:Synaptobrevin-2, 3Q:1R) (UniProt P60881). In words: native MS; 1.2 molar excess of Synaptobrevin-2 added to pre-assembled binary SNAP25:Syntaxin-1A complexes (1:2 mix), analysed directly.
The target is the same in assay [3]. In words: native MS; Synaptobrevin-2, SNAP25 and Syntaxin-1A mixed 1:1:1, incubated overnight.
For assay [4] the target is unchanged. In words: native MS; equimolar Syntaxin-1A added to the pre-assembled 2:1 SNAP25:Synaptobrevin-2 complex.
In assay [5] the target is pre-assembled binary SNAP25:Syntaxin-1A complex (1:2, 4Q:0R) (UniProt P60881). The assay can be described thus: native MS; SNAP25 and Syntaxin-1A mixed 1:2; 200 mM ammonium acetate.

The stoichiometry N is a count of units in the complex or per binding partner. The substance “SNARE:Complexin-1 complex (from UniProt P60881 1-206; P32851 1-262; P63045 1-96; P63041 1-134)” showed a stoichiometry N in assay [1] of 2.

As to “fully assembled ternary SNARE complex (SNAP25:Syntaxin-1A:Synaptobrevin-2, 3Q:1R) (from UniProt P60881 1-206; P32851 1-262; P63045 1-96)”, the stoichiometry N in assay [2] is 2 and 3; in assay [3], 2 and 3; in assay [4] it was 2 and 3 and 4.

For “pre-assembled binary SNAP25:Syntaxin-1A complex (1:2, 4Q:0R) (from UniProt P60881 1-206; P32851 1-262)”, in assay [5], the stoichiometry N came out at 2.
